According to the nanobody polyreactivity screen of Harvey et al. (2022):

test: yeast display, Sf9 membrane polyspecificity reagent, FACS + sequencing; frameworks hold sequencing errors
Summary of the method: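 Nanobodies from a synthetic yeast display library (Saccharomyces cerevisiae BJ5465), induced 36–48 hours with galactose, were stained 1 hour at 4 °C with 10% biotinylated, detergent-solubilized Sf9 membrane reagent, enriched on streptavidin microbeads, then FACS-sorted. Anti-HA (expression) and streptavidin (reagent binding) fluorescence set low and high (top ~1%) gates. Polyreactivity labels come from the gate of origin. Genes were colony-PCR amplified, MiSeq 2 × 250 sequenced and filtered by CDR length.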

| Sequence | polyreactivity (PSR sort gate) |
| --- | --- |
| QVQLVESGGGLVHAGGSLRLSCAASGFNFIVYAMGWYRQAPGKERELVASITYSGGGTYYADSVKGRFTISRDNAKNTVYLQMNSLIPEDTAVYYCNADVSWSYSVYREYGMDYWGQGTQVTVSS | low polyreactivity |
| QVQLVESGGGLVQEGGSLRLSCAASGFIFSSNDMGWYRQPPGKERELVAVISRSGGRTYYADSVKGRFTISRDNAKNTVYLQMNSLKPEDTSVYYCNKKDRLGHSGRDYWGQGTQVTVSS | high polyreactivity |
| QVQLVESGGGLVQAGGSLRLSCAASGFIFGTYAMGWYRPAPGKERELVAAITSGGSTYYADSVKGRFTISRDNAKNTVYLQMNSLKPEDTAVYYCAKYHWRLSFSRYPYDYWGQGTQVTVSS | high polyreactivity |
| QVHLVESGGGLVQAGGSLRLSCAASGRTFIFYAMRWYRQAPGKERELVATISRSAGSTYYADSVKGRFTISRDNAKNTVYLQMNSLKPEDTAVYYCATQSRHYRGGKYYYWGQGTQVSVSS | high polyreactivity |
| QVQLVESGGGLVQAGGSLRLSCAASGFIFSKYGMGWYRQAPGKERELVAAISIRGGNTYYADSVKGRFTISRDNAKNTFYLQMYSLKPEDTAVYYCAAGLRAYPYGTRSGVYYYWGQGTQVTVSS | high polyreactivity |
| QVQLVESGGGLVKAGGSLRLSCAASGLTFYFYAMGWYRQAPGKERELVAGIRKRGGGTYYADSVKGRFTISRDNAKNTVYLQMNSLKPEDTAVYYCAKEPGWGRRSTTAYDYWGQGTQVTVSS | low polyreactivity |
| QVQLVASGGGLVQAGGSLRLSCAASGGTFFYNAKGWYRQAPGKERELVAAINGGTSTNYADSVKGRFTISRDNAKNTDYLQRNSLKPEDTAVYYCAAVYRRLGRSDWYDYWGQGTQVTVSS | low polyreactivity |
| QVQLVESGGGLVQAGGSLRLSCAASGRTFWANTMGWYRQAPGKEREFVAAISGRDVSTYYADSVKGRFTISRDNAMNTVYLQMNSLKPEDTAVYYCAAGNLYYAEYDYWGQGTQVTVSS | low polyreactivity |
| QFQLVEAGGGLVQAGGSLRLSCAASGSIIPNYNMGWYRQAPAKETELVAAMSISGGTTYYADSVKGRFTISRDNAKNTVYLQMNSLKPEETAVYYCAAVEYYWFLGYYYRYDYWGQGTQVTVSS | high polyreactivity |
| QVQIVESGGGLLQAGGSLRLSCAASGSTFERYAMGWYRQAPWKERELVAAIDSSGGTTYYADSVKGRFTISRDNAKNTDYLQMNSLKPEDTAVYYCAADPGYYSVAYDYWGQGTQVTVSA | low polyreactivity |
| QVQLVESGGGLVQAGGSLRLSCAASVITFDVYAMGWYRPAPGKERELVAAISSVGGTYYADSVKGRFTISRDNAKNTVYLQMISLKPEDTAVYYCNTDGYVGSIRSGLYIYDYWGQGTQVTVSS | low polyreactivity |
| QVQLVESGGGLVQAGGSLRLSCAPSGIFYKYAMGWYRQAPGKERELVAAISISGTSTYYADSVKGRFTISRDNAKNTVYLQMNSLKPEDTAVYYCAADEFYFAPPVAGENYWGQGTQVTVSS | low polyreactivity |
| QVQLVESGGGLVQAGGSLRLSCAASGSTFVLYAMGWYRQAPGKERELVAAISTSGGRTYYADSVKGRFTISRDNAKNTVNLQMNSLKPEDTAVYYCAALTYVAQYDEYWGQGTQVTVSS | low polyreactivity |
| QVQLVESGGGLVQAGGCLRISFAASGLTFVWYGMGWYRPATGKERELVAAITSVRTTYYADSVKGRFTISRDNAKNSVYLQMTSLKAEDSGFYYCAAQWAGYGDLPWPYSVIVEFYYWGQGSQVTVSS | low polyreactivity |
| QVQLVESGGGLLQAGGSHRLSCAASGILVYNAMGWYTQAPGKERELVAAISARGGRTYYADSVKGRFTISRDNAKNTVYLQMNSLKPEDSAVYYCATLETTGVNYWGQGTQVTVSS | high polyreactivity |
| QVQLVESGGGLVQAGGSLRLSCAASGFIIFRYAMGWYRQAPGKERELDAAITRSGGSTYYADSVKGRFTISRDNAKNSVYLQMNCLKPEDTAVYYCNASRQCFTYARMDYWGQGTQVTVSS | high polyreactivity |
| QVQLVESGGGLVQAGGSLRLSCAASGSIYGTNAMGWYRKAPGKEREFVASITWGGGTYYADSVKGRFTISRDNAKNTVYFQMNSLKQEDSAVYYCATERVYTVYYDYDSWGQGTQVTVSS | low polyreactivity |
| QVQIVESGGGLVQAGGSLSLICAASGYIFGNYAMGWYRQAPGKESELVADITWRGDSTYADSVKGRFTISRDNSKNTVYLQMNSLKPEDTAVYYCAADIATEYWYTGYDHWGQGTQVTVSS | low polyreactivity |
| QVQLVESGGGLVQAGGSLRLSCAASGIIYRQNAMGWYRQATRKEREFVAAISSGGNTYYADSVKGRFTISRDNAKNTVYLQMNSLKPEDTGFYYCAADVEDRYHRAWFDYWGQGTKVTVSS | low polyreactivity |
| QVQLVESGGGLVQAGGSLRLSCAASGNTLTYNVMGWYRQAPGKDWDLVAAISGRGGRTYYADSVKGRFTISRDNAKNTVYLQMNSLKPEDTAVYYCAATSRNGESGGFYYWGQGTQVTVSS | high polyreactivity |
| QVQLVESGGGLVQAGGSLRLSCAASGRTFSVNAMGWYRQAPGKERELVAAISWSTGSTYYADSVKGRFTISRDNAKNTVYLQMNSLKPEDTAVYYCAKLYEYRRSRYRTYGYWGQGTQVTVSS | high polyreactivity |
| QVQLVESVGGLVQAGGSLRLSCAASGRIFPTYAMGSSRQAPGKERELVAAISRSGGRTYYADSVKGRFTSSRDNAKNTVYLQMNSLKPEDTAVYYCNAEGDPYVDFPSRSTGYDYWGQGTQVTVSS | high polyreactivity |
| QVQLVESGGGLVQAGGSLRLSCAASGIIFRNNAMGWYRQAPGKEREFVARISKRGGSTYYADSVKGRFTISRDNAKNTVYLQQNSLKPEDTAVYYCAKGYGSGSYLYDYWGQGTQVTVSS | high polyreactivity |
| QVQLVESGGGLVQAGGSLRLICAASGRTLAPNAMGWYRQAPGKERELVATITRGGTTNYADSVKGRFTISRDNAKNTVYLQMNSLKPEDTAVYYCAKAHYLGYYQRYDYWGQGTQVTVSS | low polyreactivity |
| QVQLVESGGGLVQAGGSLRLSCAASGHIFFYYTMGWYRQAPGKERELVAGITIGGSTNYADSVKGRFTISRDNAKNTVYLQMNSLKPEDTAVYYCNVVKYVYIYTYWEYYYWGQGTQVTVSS | low polyreactivity |
| QVQLVESGGGLVQAGGSLRLSCAASGRTFGYNAMGWYRQAPGKERELVAAINDGGSTNYADSVKGRFTISRDNAKNTVYLQMNSLKPEDTAVYYCATDFSNGRQSTFPYEYYYWGQGTQVTVSS | high polyreactivity |
| QVHHVESGGGLVQAGGTLRLSCSASGSTFWANAMGWYRQQPGKEWEFVARITYSCGSTYYADSVKGRFTISRDNAKNTVYLQMNSLIREDTAVYYCAAELPGKLVYWGQGSQVTVSS | low polyreactivity |
| QVQLVESGGGLVQAGGSLRLSCAASGSTFDYYAMGWYRQAPGKERELVAAISRTGGRTYYADSVKGRFTISRDNAKNTVYLQMNSLKPEDTAVYYCNAVTPIGGGDYDYWGEGTQVTVSS | low polyreactivity |
| QVQLVESGGGLVQAGGSLRLSCAASGRTFRYYAKGWYRPAPGTERELVADISSTGRTYYADSVKGRFTISRDNAKNTVYLQMNSLKPEDTAVYYCNADYFFEFDYWGQGTQVTVSS | low polyreactivity |
| QVQLVESGGGLVQAGGSLRLSCAASGRTIPIYAMGWYRQAPGKERELVAAITRGGRTNYADSVKGRFTISRDNAKNTVYLQMNSLKPEDTAVYYCAARTYGTYLYAEYDYWGQGTQVTVSS | high polyreactivity |
